# Test results taken from IntAct's records for PubMed 31515488.
# B1: WD repeat domain-containing protein 83 (Homo sapiens), Q9BRX9 (parent)
# chain: MAFPEPKPRPPELPQKRLKTLDCGQGAVRAVRFNVDGNYCLTCGSDKTLKLWNPLRGTLLRTYSGHGYEVLDAAGSFDNSSLCSGGGDKAVVLWDVASGQVVRKFRGHAGKVNTVQFNEEATVILSGSIDSSIRCWDCRSRRPEPVQTLDEARDGVSSVKVSDHEILAGSVDGRVRRYDLRMGQLFSDYVGSPITCTCFSRDGQCTLVSSLDSTLRLLDKDTGELLGEYKGHKNQEYKLDCCLSERDTHVVSCSEDGKVFFWDLVEGALALALPVGSGVVQSLAYHPTEPCLLTAMGGSVQCWREEAYEAEDGAG
# B2: Zinc finger protein Aiolos (Homo sapiens), Q9UKT9 (parent)
# chain: MEDIQTNAELKSTQEQSVPAESAAVLNDYSLTKSHEMENVDSGEGPANEDEDIGDDSMKVKDEYSERDENVLKSEPMGNAEEPEIPYSYSREYNEYENIKLERHVVSFDSSRPTSGKMNCDVCGLSCISFNVLMVHKRSHTGERPFQCNQCGASFTQKGNLLRHIKLHTGEKPFKCHLCNYACQRRDALTGHLRTHSVEKPYKCEFCGRSYKQRSSLEEHKERCRTFLQSTDPGDTASAEARHIKAEMGSERALVLDRLASNVAKRKSSMPQKFIGEKRHCFDVNYNSSYMYEKESELIQTRMMDQAINNAISYLGAEALRPLVQTPPAPTSEMVPVISSMYPIALTRAEMSNGAPQELEKKSIHLPEKSVPSERGLSPNNSGHDSTDTDSNHEERQNHIYQQNHMVLSRARNGMPLLKEVPRSYELLKPPPICPRDSVKVINKEGEVMDVYRCDHCRVLFLDYVMFTIHMGCHGFRDPFECNMCGYRSHDRYEFSSHIARGEHRALLK
# partner: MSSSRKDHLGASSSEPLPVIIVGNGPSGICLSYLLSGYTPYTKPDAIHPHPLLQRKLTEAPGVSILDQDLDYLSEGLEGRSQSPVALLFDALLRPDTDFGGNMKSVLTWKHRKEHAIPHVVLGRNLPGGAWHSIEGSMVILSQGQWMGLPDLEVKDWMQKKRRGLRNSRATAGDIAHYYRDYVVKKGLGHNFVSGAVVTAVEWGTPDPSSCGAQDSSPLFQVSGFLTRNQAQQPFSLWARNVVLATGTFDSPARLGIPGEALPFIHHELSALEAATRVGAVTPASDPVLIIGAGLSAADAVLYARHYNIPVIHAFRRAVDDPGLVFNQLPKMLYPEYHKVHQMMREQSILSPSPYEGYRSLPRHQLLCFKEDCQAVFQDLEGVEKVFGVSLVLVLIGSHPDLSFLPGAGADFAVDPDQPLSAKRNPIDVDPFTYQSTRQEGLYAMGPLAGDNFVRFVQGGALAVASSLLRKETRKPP
# B3: Notch homolog 2 N-terminal-like protein A (Homo sapiens), Q7Z3S9 (parent)
# chain: MCVTYHNGTGYCKCPEGFLGEYCQHRDPCEKNRCQNGGTCVAQAMLGKATCRCASGFTGEDCQYSTSHPCFVSRPCLNGGTCHMLSRDTYECTCQVGFTGKECQWTDACLSHPCANGSTCTTVANQFSCKCLTGFTGQKCETDVNECDIPGHCQHGGTCLNLPGSYQCQCLQGFTGQYCDSLYVPCAPSPCVNGGTCRQTGDFTFECNCLPETVRRGTELWERDREVWNGKEHDEN
# partner: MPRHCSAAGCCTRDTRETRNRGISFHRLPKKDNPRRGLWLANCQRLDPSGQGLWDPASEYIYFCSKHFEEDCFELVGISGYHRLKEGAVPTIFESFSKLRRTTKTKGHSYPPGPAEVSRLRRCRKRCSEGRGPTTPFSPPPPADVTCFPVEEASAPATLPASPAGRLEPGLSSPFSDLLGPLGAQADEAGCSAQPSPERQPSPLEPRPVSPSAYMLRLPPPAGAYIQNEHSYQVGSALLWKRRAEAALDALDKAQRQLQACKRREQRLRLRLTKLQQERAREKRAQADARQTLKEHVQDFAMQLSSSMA
# B4: Keratin, type II cytoskeletal 6A (Homo sapiens), P02538 (parent)
# chain: MASTSTTIRSHSSSRRGFSANSARLPGVSRSGFSSVSVSRSRGSGGLGGACGGAGFGSRSLYGLGGSKRISIGGGSCAISGGYGSRAGGSYGFGGAGSGFGFGGGAGIGFGLGGGAGLAGGFGGPGFPVCPPGGIQEVTVNQSLLTPLNLQIDPTIQRVRAEEREQIKTLNNKFASFIDKVRFLEQQNKVLETKWTLLQEQGTKTVRQNLEPLFEQYINNLRRQLDSIVGERGRLDSELRGMQDLVEDFKNKYEDEINKRTAAENEFVTLKKDVDAAYMNKVELQAKADTLTDEINFLRALYDAELSQMQTHISDTSVVLSMDNNRNLDLDSIIAEVKAQYEEIAQRSRAEAESWYQTKYEELQVTAGRHGDDLRNTKQEIAEINRMIQRLRSEIDHVKKQCANLQAAIADAEQRGEMALKDAKNKLEGLEDALQKAKQDLARLLKEYQELMNVKLALDVEIATYRKLLEGEECRLNGEGVGQVNISVVQSTVSSGYGGASGVGSGLGLGGGSSYSYGSGLGVGGGFSSSSGRAIGGGLSSVGGGSSTIKYTTTSSSSRKSYKH
# partner: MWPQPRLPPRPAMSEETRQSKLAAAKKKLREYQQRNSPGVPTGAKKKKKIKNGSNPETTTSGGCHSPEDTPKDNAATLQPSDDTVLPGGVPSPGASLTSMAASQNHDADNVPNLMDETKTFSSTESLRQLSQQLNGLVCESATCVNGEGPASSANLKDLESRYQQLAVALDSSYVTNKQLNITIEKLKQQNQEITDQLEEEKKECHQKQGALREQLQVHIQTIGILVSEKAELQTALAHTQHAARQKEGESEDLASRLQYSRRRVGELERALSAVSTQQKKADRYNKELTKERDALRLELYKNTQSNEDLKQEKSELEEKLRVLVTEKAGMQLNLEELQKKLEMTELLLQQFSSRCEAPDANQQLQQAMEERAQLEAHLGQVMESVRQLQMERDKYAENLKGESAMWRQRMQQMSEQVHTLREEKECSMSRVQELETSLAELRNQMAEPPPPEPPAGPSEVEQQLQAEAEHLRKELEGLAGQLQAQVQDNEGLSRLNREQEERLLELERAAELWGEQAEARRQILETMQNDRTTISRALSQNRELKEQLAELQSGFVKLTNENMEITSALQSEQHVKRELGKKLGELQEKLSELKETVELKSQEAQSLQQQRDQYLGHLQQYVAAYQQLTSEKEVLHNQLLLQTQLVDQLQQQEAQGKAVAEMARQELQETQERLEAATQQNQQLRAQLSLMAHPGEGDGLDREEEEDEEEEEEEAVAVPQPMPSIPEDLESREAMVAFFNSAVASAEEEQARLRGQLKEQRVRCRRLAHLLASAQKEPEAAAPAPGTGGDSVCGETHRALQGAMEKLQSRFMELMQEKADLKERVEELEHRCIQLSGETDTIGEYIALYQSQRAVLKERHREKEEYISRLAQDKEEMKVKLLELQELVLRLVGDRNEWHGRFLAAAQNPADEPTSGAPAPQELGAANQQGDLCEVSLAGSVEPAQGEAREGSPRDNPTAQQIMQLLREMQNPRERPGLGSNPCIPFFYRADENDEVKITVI
# B5: Fibronectin type III and SPRY domain-containing protein 2 (Homo sapiens), A1L4K1 (parent)
# chain: MEEESGEELGLDRSTPKDFHFYHMDLYDSEDRLHLFPEENTRMRKVVQAEMANESRGAGDGKAQRDLQEEVDELVHLYGLEDDHELGDEFVDENIPRTGVSEYPPYMMKRRDPAREQRDWRLSGEAAEAEDLGFGGWGSAGQCQDLREAYRYTHGRASEEYECYVIPEEEDEEEAADVFCVTCKTPIRAFQKVFDEHKEHEVIPLNEALESAKDEIHKNMYKLEKQIIEMENFANHLEEVFITVEENFGKQEQNFESHYNEILETLAQKYEEKIQALGEKKKEKLEALYGQLVSCGENLDTCKELMETIEEMCHEEKVDFIKDAVAMADRLGKFLKTKTDVEISAQPEFEDQTLDFSDVEQLMGSINTIPAPSAPVINPQVPNSATGSSVRVCWSLYSDDTVESYQLSYRPVQDSSPGTDQAEFTVTVKETYCSVTNLVPNTQYEFWVTAHNRAGPSPSSERAVYMTAPSPPIIKTKEIRSCEEAVLICWESGNLNPVDSYTVELTQAESPEASGVTESVVGIPTCESVVQLQPGRSYIIYVRALNMGGPSVRSEPATVHTIGSYFRLNKDTCHPWLTISEDGLTAVRSERRTPARELSPSDTHFTRCVAVMGNLIPVRGHHYWEVEVDEHLDYRVGVAFADVRKQEDLGANCLSWCMRHTFASSRHKYEFLHNRTTPDIRITVPPKKIGILLDYEHSKLSFFNVDLSQHLYTFSCQLHEFVHPCFSLEKPGCLKVHNGISMPKHVTFY
# Variants of: B1
# Conditions: with keap1_human KEAP1, Q14145
# Chain of keap1_human KEAP1, Q14145 (Q14145 whole entry): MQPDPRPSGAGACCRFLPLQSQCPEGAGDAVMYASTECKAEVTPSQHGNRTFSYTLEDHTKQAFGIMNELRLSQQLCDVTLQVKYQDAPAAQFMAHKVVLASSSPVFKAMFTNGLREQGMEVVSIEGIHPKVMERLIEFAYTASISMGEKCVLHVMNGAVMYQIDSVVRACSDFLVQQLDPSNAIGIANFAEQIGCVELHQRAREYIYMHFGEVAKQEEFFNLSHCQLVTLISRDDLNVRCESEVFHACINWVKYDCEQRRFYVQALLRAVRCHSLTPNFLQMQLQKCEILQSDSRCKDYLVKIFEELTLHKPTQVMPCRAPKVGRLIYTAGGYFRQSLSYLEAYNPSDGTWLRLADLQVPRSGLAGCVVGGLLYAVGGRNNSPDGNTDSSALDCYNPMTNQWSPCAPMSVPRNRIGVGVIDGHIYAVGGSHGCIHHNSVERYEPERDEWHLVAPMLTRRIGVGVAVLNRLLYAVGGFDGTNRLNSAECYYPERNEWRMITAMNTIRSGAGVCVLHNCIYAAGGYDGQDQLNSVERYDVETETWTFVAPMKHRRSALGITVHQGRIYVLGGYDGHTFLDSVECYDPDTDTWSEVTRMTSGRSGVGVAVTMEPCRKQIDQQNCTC
row,effect of a mutation on the interaction,Variant
1,with no effect,E144Q

# Variants of: B2
# Conditions: with osgi1_human OSGIN1, Q9UJX0
row,effect of a mutation on the interaction,Variant
1,with no effect,N119D
2,with no effect,A24V

# Variants of: B3
# Conditions: with thap7_human THAP7, Q9BT49
row,effect of a mutation on the interaction,Variant
1,with no effect,R74Q
2,with no effect,A115T

# Variants of: B4
# Conditions: with goga2_human GOLGA2, Q08379
row,effect of a mutation on the interaction,Variant
1,with no effect,R559G
2,with no effect,A335T
3,with no effect,T552S
4,with no effect,L210M
5,with no effect,V523F
6,with no effect,R415H

# Variants of: B5
# Conditions: with cor1a_human CORO1A
row,effect of a mutation on the interaction,Variant
1,with no effect,E720K
